Assay results published in patent US20140031247.

Tests used:
[1] = tested on: N1-Sb1 substrate with P2 substitution C1752M
[2] = tested on: biotinylated recombinant Notch1 substrate N1-Sb1
[3] = tested on: N1-Sb1 substrate with P2 substitution C1752V
[4] = tested on: N1-Sb1 substrate with P2 substitution C1752A

Chain of biotinylated recombinant Notch1 substrate N1-Sb1 (chain, as listed by the source): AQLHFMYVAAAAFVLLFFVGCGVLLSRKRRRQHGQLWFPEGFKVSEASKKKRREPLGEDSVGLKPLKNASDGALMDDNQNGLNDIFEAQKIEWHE

Substance	rate of γ-secretase cleavage compared with WT substrate [1]	Km [2]	rate of γ-secretase cleavage compared with WT substrate [3]	rate of γ-secretase cleavage compared with WT substrate [4]	apparent Km [2]
γ-secretase with wild type PS1 (membrane of knock-in wild type PS1 mouse brain)	C1752M substrate also had no effect on WT PS1 (left panel)	The Km values of WT and M146V PS1 are 60 and 48 nM, respectively			
γ-secretase with E280A PS1 (membrane of N2a cells stably expressing E280A PS1)	E280A (185.5±7.4%) PS1	the Km values for N1-Sb1 cleavage by PS1 wild-type, M146L, and E280A FAD mutants are 70, 49, and 50 nM, respectively	had no effect on WT (left panel) and E280A PS1 (right panel)	significantly reduced reactivity for all three forms of γ-secretase (20-30% remaining)	
γ-secretase with M146V PS1 (membrane of M146V PS1 knock-in mouse brain)	enhanced activity for M146V knock-in PS1 (127.4±3.7%)	The Km values of WT and M146V PS1 are 60 and 48 nM, respectively			
γ-secretase of HeLa cell membrane					the apparent Km of N1-Sb1 cleavage by γ-secretase is 0.15±0.03 µM
γ-secretase with M146L PS1 (membrane of N2a cells stably expressing M146L PS1)	significantly enhanced activity for M146L (166.4±6.1%)	the Km values for N1-Sb1 cleavage by PS1 wild-type, M146L, and E280A FAD mutants are 70, 49, and 50 nM, respectively	considerably increased reactivity for M146L PS1 γ-secretase (141.3±17.9%0	significantly reduced reactivity for all three forms of γ-secretase (20-30% remaining)	
γ-secretase with wild-type PS1 (membrane of N2a cells stably expressing WT PS1)	C1752M substrate had no effect on WT (left panel)	the Km values for N1-Sb1 cleavage by PS1 wild-type, M146L, and E280A FAD mutants are 70, 49, and 50 nM, respectively	had no effect on WT (left panel) and E280A PS1 (right panel)	significantly reduced reactivity for all three forms of γ-secretase (20-30% remaining)	
